Experimental data taken from publication PMC11150526, “Pseudomonas aeruginosa gene PA4880 encodes a Dps-like protein with a Dps fold, bacterioferritin-type ferroxidase centers, and endonuclease activity” (Frontiers in Molecular Biosciences, 2024).

Assays:
[1] = biological target: the molecule itself; experiment: crystal structure; Pa DpsL-dimer (also called Pa DpsL-monomer); protein purified without MgSO4; crystals from 8% PEG 6,000, 100 mM MES pH 6.0, 100 mM MgCl2; 1.3 A; one molecule in the asymmetric unit, dimer by crystallographic symmetry (PISA)
[2] = biological target: the molecule itself; experiment: SEC; calibrated Superdex 200 Increase 10/300 GL; 50 mM Tris pH 7.5, 1 mM MgSO4; also run after titration with Fe2+ (0 h and 24 h), and after MgSO4 was added back to disassembled protein (only partial reassembly)

B1: Pseudomonas aeruginosa Dps-like protein (product of gene PA4880) (natural protein, Pseudomonas aeruginosa PAO1, UniProt Q9HUT3 1-177, looked up)
chain: MTTVQLTDVQTLRDRARKNIQEGAVTEGYSADRQTVLRLLNEALATELVCFLRYKRHYFMATGLKASIAAAEFLEHANQEMQHADQLAERIMQLGGEPDFNPRGLEERSHAEYVEGKTLKDMVTENLIAERIAIDSYREIITYLGNDDPTTRRIFEEILAQEEEHADDMADILDDLA
notes: Product of gene PA4880 of P. aeruginosa PAO1 (annotated as probable bacterioferritin); The gene was synthesised with silent, codon-optimising mutations and cloned NdeI/BamHI into pET11a; The structures number residues from Met1; No tag is mentioned; As isolated it carries di-iron ferroxidase centres (8-10 Fe per 12-mer); also called Pa DpsL; PaDpsL; source: E. coli BL21-Gold (DE3), pET11a, …
[1]
  stoichiometry N: 2
[2]
  stoichiometry N: 12
